Drawing on patent US20140309177, this text covers activity for 3 substances.

What all share (assay): cell_activity
Holding throughout (conditions): HEK293T luciferase reporter, single TALE-TF
A general note: Reporter assays use an easily measured gene product as a stand-in for the process of interest.

Data set [1] addresses CEACAM5 TALE B TALE-TF (VP64) (synthetic (Xanthomonas TALE)?) (UniProt Q56830).
Data set [2] has as its system CEACAM5 TALE C TALE-TF (VP64) (synthetic (Xanthomonas TALE)?).
Data set [3] addresses CEACAM5 TALE D TALE-TF (VP64) (synthetic (Xanthomonas TALE)?) (UniProt Q56830).
In data set [4] the target is CEACAM5 TALE E TALE-TF (VP64) (synthetic (Xanthomonas TALE)?) (UniProt Q56830).
Data set [5] has as its system CEACAM5 TALE F TALE-TF (VP64) (synthetic (Xanthomonas TALE)?).
Data set [6] concerns the target IL1RN TALE-A TALE-TF (VP64) (synthetic (Xanthomonas TALE)?) (UniProt Q56830).
In data set [7] the test system is IL1RN TALE-B TALE-TF (VP64) (synthetic (Xanthomonas TALE)?).
For data set [8], the system named is IL1RN TALE-C TALE-TF (VP64) (synthetic (Xanthomonas TALE)?).
In data set [9] the target is IL1RN TALE-D TALE-TF (VP64) (synthetic (Xanthomonas TALE)?) (UniProt P14727).
For data set [10], the system named is KLK3 TALE D TALE-TF (VP64) (synthetic (Xanthomonas TALE)?).
Data set [11] deals with KLK3 TALE E TALE-TF (VP64) (synthetic (Xanthomonas TALE)?) (UniProt Q56830).
Data set [12] deals with KLK3 TALE F TALE-TF (VP64) (synthetic (Xanthomonas TALE)?) (UniProt Q56830).
The target of data set [13] is KLK3 TALE-A TALE-TF (VP64) (synthetic (Xanthomonas TALE)?) (UniProt Q56830).

Consider “CEACAM5 promoter reporter (hg19 chr19:42211804-42212651)”, for which the activity in data set [1] worked out at 11.6 fold RLA; in data set [2] it was 3.74 fold RLA; in [3], 4.59 fold RLA; in data set [4], 2.41 fold RLA; in data set [5], 4.7 fold RLA.
As to “IL1RN promoter reporter (hg19 chr2:113874366-113875462)”, the activity was found to be 14.4 fold RLA in [6], 12 fold RLA in data set [7], 6.75 fold RLA in [8] and 5.76 fold RLA in data set [9].
With “KLK3 promoter reporter (hg19 chr19:51357466-51358177)”, the activity was found to be 45.8 fold RLA in data set [10], 2.17 fold RLA in [11], 4.57 fold RLA in data set [12] and 25.1 fold RLA in [13].
